Measurements published in the nanobody polyreactivity screen of Harvey et al. (2022).

Experiment: yeast display, Sf9 membrane polyspecificity reagent, FACS + sequencing; frameworks hold sequencing errors
Outline: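 Synthetic nanobody libraries on Saccharomyces cerevisiae BJ5465 were galactose-induced for 36–48 hours, stained 1 hour at 4 °C with 10% biotinylated, detergent-solubilized Sf9 membrane reagent and enriched on streptavidin microbeads. FACS then separated cells into low and high (top ~1%) gates by anti-HA (expression) and streptavidin (reagent binding) fluorescence. Genes were colony-PCR amplified, MiSeq 2 × 250 sequenced and CDR-length filtered. A clone's polyreactivity label is that of its gate of origin.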

Row | Sequence | polyreactivity (PSR sort gate)
1 | QVQLVESGGGLVQAGGSLRLSCAASGFTFYYYAMGWYRQAPGKESDLVAAISWSGGTTYYADSVKGRFTISRDNAKNTVYFQMNSLKPEDPAVYYCAADIRDPGVPMDYWGQGTQVTVSS | low polyreactivity
2 | QVQLVESGGGLVQAGGSLRLSCAASGFTFYYYTMGWYRQAPGKERELVAAITWRGGSTNYADSVKGRFTISRDNAKNTVYLQMNSLKPEDTAVYYCAAVTYWFWPGMDYWGQGTQVTVSS | low polyreactivity
3 | QVQLVESGGGLVQAGGSLRLSCAASGFTIDGYAMGGYRQAPGKERELVAAISGGGSTYYADSVKGRFTISRDNAKNTVYLQMNSLKPEDTAVYYCAAARITRGRRYDYWGQGTQVTVSS | high polyreactivity
4 | QVQLVESGGGLVQAGGSLRLSCAASGFTIDNYAMGWYRHSPGKEMEVVAAINWSGDRMYYADSVKGRFTFSRDNAKNTVYLQMNSLKPEDTAVYYCAAPASRSQGPFPGYDYWGQGTQVTVSS | high polyreactivity
5 | QVQLVESGGGLVQAGGSLRLSCAASGFTIDSNVMGWYRQAPGKDRELVAAITGDDTTYYADSVKGRFTISRDNAKNTVYLQMNSLKPEDTAVYYCAADETESLEYTAYDMYYWGQGTQVTVSS | low polyreactivity
6 | QVQLVESGGGLVQAGGSLRLSCAASGFTIESNAMGWYRQAPGKERELVAAISASGDSTYYADSVKGRFTISRDNAKNTVYLQMNSLKPEDTAVYYCAADRYYGGWRFDHWGQGTQVTVSS | low polyreactivity
7 | QVQLVESGGGLVQAGGSLRLSCAASGFTIIYNAMGWYSQAPGKERELVAAISSGGSTYYADSVKGRFTISRDNAKNTVYFQMNSLKPVDTAVYYCNADVGFFNSGYEDSDYWGQGTQVTVSS | low polyreactivity
8 | QVQLVESGGGLVQAGGSLRLSCAASGFTINGNAMGWYRQAPGKERELVAAITWRGGSTYYADSVKGRFTISRDNAKNTVYLQMNSLKPEDTAVYYCNVEGWYDYDYWGQGTQVTVSS | high polyreactivity
9 | QVQLVESGGGLVQAGGSLRLSCAASGFTININDMRGYRQAPGIDTDLVAALSWNVGNRYYADSVKGRFTISRDNAKNTVYLQMKSLKPEDTAVYYCAADRYIRWVEFDYWGQGTQVTVSS | low polyreactivity
10 | QVQLVESGGGLVQAGGSLRLSCAASGFTIRAYVMGSYRQAPGKEREFVADISYRGGGTNYADSVKGRFTISRDNAKNTVYLQMNSLKPEDTAVYYCNARSGSSKSGYYYWGQGTQVTVSS | high polyreactivity
11 | QVQLVESGGGLVQAGGSLRLSCAASGFTIRSYVMGWYRQAPGKEREFVAAISYRGGGTNYADSVKGRFTISRDNAKNTVYLQMNSLKPEDTAVYYCNALVYDQYGYYHYYLRNGGYYWGQGTQVTVSS | high polyreactivity
12 | QVQLVESGGGLVQAGGSLRLSCAASGFTIRYYALGWYRQAPGKERELVAAISRGGSTTYADSVKGRFTISRDNAKNTVYLQMNSLKPEDTAVDYCAVYSKWSVTYDYWGQGTQVTVSS | high polyreactivity
13 | QVQLVESGGGLVQAGGSLRLSCAASGFTISQYAMGWYRQAPGKERELVAVISINGGSTYYADSVKGRFTISRDNAKNTVYLEKNSLKPEDTAVYYCAADDTDSEDYGYDYWGQGTQVTVSS | low polyreactivity
14 | QVQLVESGGGLVQAGGSLRLSCAASGFTITKYAMGWYRQAPGKERALVAAISRSAGSTYYADSVKGRFTISRDNAKHTVYLQMNSLKPEDTAVYYCNAYPKGRYAAAFPGMDYWGQGTQVTVSS | high polyreactivity
15 | QVQLVESGGGLVQAGGSLRLSCAASGFTIVYYAMGWYRQAPGKERELVAAISATGGRTYYADSVKGRFTISRDNAKNTVYLQMNSLKPEDTAVYYCAVGLSGASSGMGYWGQGTQVTVSS | high polyreactivity
16 | QVQLVESGGGLVQAGGSLRLSCAASGFTIWRYAMGWYRQAPGKERELVAAISRGGSTNYADSVKGRFTISRDNAKNTVYLQMNSLKPEDTAVYYCAASVQYRRLKKFYYWGQGTQVTVSS | high polyreactivity
17 | QVQLVESGGGLVQAGGSLRLSCAASGFTIYHNAMGWYRQAPGKERELVAAISSSGDSTYYADSVKGRFTISRDNAKNTVYLQMNSLKPEDTAVYYCNDYFYYLSLYYYYWFNYDYWGQGTQVTVSS | low polyreactivity
18 | QVQLVESGGGLVQAGGSLRLSCAASGFTIYKYAMGWYRQPPGKERELVAAITGRGGSTNYADSVKGRFTISRDTAQNTVYLQMNILKPEDTAFYYCAARTPSYEMDYWGQGTQVTVSS | high polyreactivity
19 | QVQLVESGGGLVQAGGSLRLSCAASGFTIYLYTMGWYRQAPGKERELVATISWSGGSTYYADSVKGRFTISRDNAKNNVYLHMNSLKPEDTAVYYCAKAYNGRYTWRYDYWGQGTQVTVSS | high polyreactivity
20 | QVQLVESGGGLVQAGGSLRLSCAASGFTIYRYAMGWYRQAPGKERELVAAITGGGGSTYYADSVKGRFTISRDNAKNTVYLQMNSLKPEVTAVYYCAVDVYHKGQYRWSYGYWGQGTQVTVSS | low polyreactivity
21 | QVQLVESGGGLVQAGGSLRLSCAASGFTLAGYAMGWYRQAPGKERELVSAITTSGGSTFYADSVKGRFTISRDNAKNTDYLKMNSLKPEDTAVYYCAAAIRTRTSYYRFDYWGQGTQVTVSS | high polyreactivity
22 | QVQLVESGGGLVQAGGSLRLSCAASGFTLANYAMGWYRQAPGKERELVAAIDYSGGGTYYADSVKGRFTISRDNAKNTVYLQMNSLKPEDTAVYYCAARRWSYYSAKYDYWGQGTQVTVSS | low polyreactivity

Row | Sequence | polyreactivity (PSR sort gate)
23 | QVQLVESGGGLVQAGGSLRLSCAASGFTLARYAMGWYRPAPGKERELVAALTQSGVSTYYADSVKGRFTISRDNAKNTVYLQMNSLKPEDTAVYYCNALLRRTDYRYTWGYGYWGQGTQVTVSS | high polyreactivity
24 | QVQLVESGGGLVQAGGSLRLSCAASGFTLDRYAMGWYRQAPGKERELVAAITQSGVSTYYADSVKGRFTISRDNAKNTVYLQMNSLKPEDTAVYYCNALLRRTDYRYTWGYGYWGQGTQVTVSS | high polyreactivity
25 | QVQLVESGGGLVQAGGSLRLSCAASGFTLEYNAMGWYRQAPGKERELVAAIDGDGTTYYADSVKGRFTISRDNAKNTVYLQMNSLKPEDTAVYYCNTRTTPYYAQGITRIEYDYWGQGTQVTVSS | low polyreactivity
26 | QVQLVESGGGLVQAGGSLRLSCAASGFTLFWNDMGWYRQAPGKERELVAAITSGDDTYADSVKGRFTISRDNAKNTVYLQMNSLKPEDTAVYYCNKDDPLRNVAQVILYEFYYWGQGTQVTVSS | low polyreactivity
27 | QVQLVESGGGLVQAGGSLRLSCAASGFTLGRYAMGWYRQAPGKERELVAAISSGGRTYYADSVKGRFTISRDNAKNTVYLQMNSLKPEDTAVYYCAADPRYISYDYWGQGTQVTVSS | low polyreactivity
28 | QVQLVESGGGLVQAGGSLRLSCAASGFTLGSNAMGWYRQAPGKERELVAAISKSGGSTYYADSVKGRFTISRDNAKNTVYLQMNSLKPEDTAVYYCAARYLYQGYRYDYWGQGTQVTVSS | high polyreactivity
29 | QVQLVESGGGLVQAGGSLRLSCAASGFTLPVYAMGWYRQAPGKERELVARITWSAGRTYYADSVKGRFTISRDNAKNTGYLQMNSLKPEDTAVYYCAAGPVSQHHSPRPHDYWGQGTQVTVSS | high polyreactivity
30 | QVQLVESGGGLVQAGGSLRLSCAASGFTLPVYGMGWYRQAPGQERELVAAISSRGGNTYYADSVKGRFTISRDNAKNTVYLQMNSLKPEDTAVYYCAAGGITYTGDDYWGQGTQVTVSS | high polyreactivity
31 | QVQLVESGGGLVQAGGSLRLSCAASGFTLQRYAMGWYRQAPGKEREFVAVITRSGGSTYYADSVKGRFTISRDNAKNSVYLQMNSLKPEDTAVYDCAKREFPTTRNRGRYDYWGQGTQVTVSS | high polyreactivity
32 | QVQLVESGGGLVQAGGSLRLSCAASGFTLSYYAMGWYRQAPGKERELVASISAIGGITYYADSVKGRFTISRDNAKNTVYLQMNSLKPEDTAVYYCARQGRRYRRFDSWGQGTQVTVSS | high polyreactivity
33 | QVQLVESGGGLVQAGGSLRLSCAASGFTLTLYAMGCYRQSPGKERELVAAISGNGGRTYYADSVKGRFTISRDNAKNTVYLQMNSLKPEDTAVYYCAARYTRSPSDYSTRKFGYGYWGQGTQVTVSS | high polyreactivity
34 | QVQLVESGGGLVQAGGSLRLSCAASGFTLTLYAMGWYRQAPGKERELVARITSSGGITYYADSVKGRFTISRDNAKNTVYLQMISLKPEDTAVYYCAKEALIGPSRIILGEMGYWGQGTQVTVSS | low polyreactivity
35 | QVQLVESGGGLVQAGGSLRLSCAASGFTLTRNAMGWYRQAPGKERELVAAISWSGGTTYYADSVKGRFTISRDNAKNTVYLQMNSLKPEDTAVYYCAADYTLQRQTSFLDSEFYWGQGTQVTVSS | high polyreactivity
36 | QVQLVESGGGLVQAGGSLRLSCAASGFTLVKYVMVWYMQAPGKEREFVATIRRRGGNTYYADSVKGRFTISRDNAKNTVYLQMNSLKPEDTAVYYCAAKKRSDLRTGDMEYWGQGTQVTVSS | high polyreactivity
37 | QVQLVESGGGLVQAGGSLRLSCAASGFTLVLNAMGWYRQAPGKERELVAAIRRSAGSTYYADSVKGRFTISRDNAKNTVYLQMNSLKPEDTAVYYCAAGFLWAKYAYGHWGQGTQVTVSS | low polyreactivity
38 | QVQLVESGGGLVQAGGSLRLSCAASGFTLVLNAMGWYRQAPGKEREVVAAIRRSAGSTYYADSVKGRFTISRDNAKNTVYLQMNSLKPEDTAVYYCAAGFLWAKYAYGHWGQGTQVTVSS | low polyreactivity
39 | QVQLVESGGGLVQAGGSLRLSCAASGFTLWLNAMGWYRRAPGKERELVAAITTSDDGTYYADSVKGRFTISRDNAKNTVYLQMNSLKPEDTAVYYCAADYYSVLYDYWGQGTQVTVSS | low polyreactivity
40 | QVQLVESGGGLVQAGGSLRLSCAASGFTLWYNTMGWYRQAPGKERELVASITIGDSTSYADSVKGRFTISRDNAKNTVYLQMNSLKPEDTAVYYCNAEIALNSYDTYHRAADGYNYWGQGTQVTVSS | low polyreactivity
41 | QVQLVESGGGLVQAGGSLRLSCAASGFTLYDNAMGWYRQAPWKERELVAAISWSGGSTYYADSVKGRFTISRDNAKNTVYLQMNRLKPEDTAVYYCATDFVSYAEGRMEYWGLGTQVTVSS | low polyreactivity
42 | QVQLVESGGGLVQAGGSLRLSCAASGFTLYRNAMGWYRQAPGKERELVAAITSSGGGTYYADSVKGRFTISRDNAKNTVYLQMNSLKPEDTAVYYCAARSTSDREGNYWGQGTQVTVSS | low polyreactivity
43 | QVQLVESGGGLVQAGGSLRLSCAASGFTLYRNAMGWYRQAPGKERELVAAITSSGGRTYYADSVKGRFTISRDNAKYTVYLQMNSLKPEVTAVYSCAADFGLGYYYWGQGTQVTVSS | high polyreactivity
